B1: Bacillus subtilis DarB (natural protein)
chain: MISLQSDQLLEATVGQFMIEADKVAHVQVGNNLEHALLVLTKTGYTAIPVLDPSYRLHGLIGTNMIMNSIFGLERIEFEKLDQITVEEVMLTDIPRLHINDPIMKGFGMVINNGFVCVENDEQVFEGIFTRRVVLKELNKHIRSLNK
B2: Bacillus subtilis Rel N-terminal domain region (RelBs^NTD; residues 1 to 373) (domain or fragment)
chain: not shown

Tests used:
Test in all cases: ITC
[1] = molecular target: RelBs^NTD Y279A (Bacillus subtilis)
[2] = molecular target: RelBs^NTD K290G (Bacillus subtilis)
[3] = molecular target: DarB E74G/R75G (Bacillus subtilis, UniProt O31698 1-147, E74G | R75G)
[4] = molecular target: DarB^E34R (Bacillus subtilis, UniProt O31698 1-147, E34R)

Row | Binder | Kd [1] | Kd [2] | Kd [3] | Kd [4]
1 | B1 | 45.1 µM | 4 µM |  | 
2 | B2 |  |  | 8.9 µM | 10.6 µM
